# From publication PMC3520712, “Arabidopsis mutant sk156 reveals complex regulation of SPL15 in a miR156-controlled gene network”
# T1: SPL15 SBP domain (His-tagged) (Arabidopsis thaliana, UniProt Q9M2Q6 50-139)
# T1 sequence: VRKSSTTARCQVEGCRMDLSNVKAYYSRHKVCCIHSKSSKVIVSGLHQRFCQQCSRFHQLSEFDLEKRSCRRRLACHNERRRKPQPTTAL
# Target: T1, SPL15 SBP domain (His-tagged)
# Experiment: EMSA; ~500 ng protein, ~20 fmol DNA; displaced by 100-fold unlabeled N1; 10 mM Tris pH 7.5, 50 mM KCl, 5 mM MgCl (so in the source), 5 mM DTT, 2.5% glycerol, 0.05% NP-40, 25 C 30 min; 7.5% gel in 0.5x TBE at 4 C
# Conditions: protein: recombinant; tags: His tag (pET28a, BamHI/SalI; 16.3 kD fusion); label: digoxigenin (DIG Gel Shift kit); blunt
binder,measurement,value
miR156b promoter 46-mer (R156b-bx1) (dsDNA) DNA 1: TAATTAGTGAAACTGTACAATGTACAATGTACCAATGCCATTAATG DNA 2: CATTAATGGCATTGGTACATTGTACATTGTACAGTTTCACTAATTA,binding result,binds
